Source: paper PMC6899773 (Chemistry (Weinheim an Der Bergstrasse, Germany), 2019)

Molecular target: the molecule itself
Assay: AUC

B1: DC-SIGN extracellular domain (ECD) (domain or fragment, UniProt Q9NNX6 66-404, looked up)
chain: SISQEQSRQDAIYQNLTQLKAAVGELSEKSKLQEIYQELTQLKAAVGELPEKSKLQEIYQELTRLKAAVGELPEKSKLQEIYQELTWLKAAVGELPEKSKMQEIYQELTRLKAAVGELPEKSKQQEIYQELTRLKAAVGELPEKSKQQEIYQELTRLKAAVGELPEKSKQQEIYQELTQLKAAVERLCHPCPWEWTFFQGNCYFMSNSQRNWHDSITACKEVGAQLVVIKSAEEQNFLQLQSSRSNRFTWMGLSDLNQEGTWQWVDGSPLLPSFKQYWNRGEPNNVGEEDCAEFSGNGWNDDKCNLAKFWICKKSAASCSRDEEQFLSPAPATPNPPPA
With B1 the “stoichiometry N” value was 4.
